Results taken from FireProtDB (doi:10.1021/bi0362267).

Details: Bacillus amyloliquefaciens, pH 6.3, Thermal, CD, Mes 50 mM, whole UniProt chain shown

B1: Ribonuclease wild type, P00648 (protein)
chain: MMKMEGIALKKRLSWISVCLLVLVSAAGMLFSTAAKTETSSHKAHTEAQVINTFDGVADYLQTYHKLPDNYITKSEAQALGWVASKGNLADVAPGKSIGGDIFSNREGKLPGKSGRTWREADINYTSGFRNSDRILYSSDWLIYKTTDHYQTFTKIR
unfolding free energy (25 °C): 9.5 kcal/mol
Tm: 52.2 °C
unfolding enthalpy (van 't Hoff): 137 kcal/mol
